Numbering of substitutions follows the chain as printed.
Tests used:
[1] = biological target: T1, quenched fluorogenic peptide of the human CD28 stalk region (WT)
T1 chain: KGKHLSPSPLFPGPSKPE

[2] = biological target: T2, L145K mutated biotinylated and Myc tagged human CD28 stalk region dimeric peptide
T2 chain: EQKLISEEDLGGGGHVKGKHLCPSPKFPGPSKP

[3] = biological target: T3, c-Myc conjugated and biotinylated human CD28 stalk region dimeric peptide (wild-type)
T3 chain: T2 chain with K26L

[4] = biological target: quenched fluorogenic peptide of the human CD28 stalk region with L145K

B1: Recombinant human ADAM-10 (protein)
chain: TTSAEKNTCQLYIQTDHLFFKYYGTREAVIAQISSHVKAIDTIYQTTDFSGIRNISFMVKRIRINTTADEKDPTNPFRFPNIGVEKFLELNSEQNHDDYCLAYVFTDRDFDDGVLGLAWVGAPSGSSGGICEKSKLYSDGKKKSLNTGIITVQNYGSHVPPKVSHITFAHEVGHNFGSPHDSGTECTPGESKNLGQKENGNYIMYARATSGDKLNNNKFSLCSIRNISQVLEKKRNNCFVESGQPICGNGMVEQGEECDCGYSDQCKDECCFDANQPEGRKCKLKPGKQCSPSQGPCCTAQCAFKSKSEKCRDDSDCAREGICNGFTALCPASDPKPNFTDCNRHTQVCINGQCAGSICEKYGLEECTCASSDGKDDKELCHVCCMKKMDPSTCASTGSVQWSRHFSGRTITLQPGSPCNDFRGYCDVFMRCRLVDADGPLARLKKAIFSPELYENIAE
fluorescence from cleavage of quenched fluorogenic peptide [1]: ADAM-10 and ADAM-17 did not

B2: Recombinant human MMP-2 (protein)
chain: YNFFPRKPKWDKNQITYRIIGYTPDLDPETVDDAFARAFQVWSDVTPLRFSRIHDGEADIMINFGRWEHGDGYPFDGKDGLLAHAFAPGTGVGGDSHFDDDELWTLGEGQVVRVKYGNADGEYCKFPFLFNGKEYNSCTDTGRSDGFLWCSTTYNFEKDGKYGFCPHEALFTMGGNAEGQPCKFPFRFQGTSYDSCTTEGRTDGYRWCGTTEDYDRDKKYGFCPETAMSTVGGNSEGAPCVFPFTFLGNKYESCTSAGRSDGKMWCATTANYDDDRKWGFCPDQGYSLFLVAAHEFGHAMGLEHSQDPGALMAPIYTYTKNFRLSQDDIKGIQELYGASPDIDLGTGPTPTLGPVTPEICKQDIVFDGIAQIRGEIFFFKDRFIWRTVTPRDKPMGPLLVATFWPELPEKIDAVYEAPQEEKAVFFAGNEYWIYSASTLERGYPKPLTSLGLPPDVQRVDAAFNWSKNKKTYIFAGDKFWRYNEVKKKMDPGFPKLIADAWNAIPDNLDAVVDLQGGGHSYFFKGAYYLKLENQSLKSVKFGSIKSDWLGC
fluorescence from cleavage of quenched fluorogenic peptide [1]: MMP-2 cleaves the stalk domain peptide
fluorescence from cleavage of quenched fluorogenic peptide (2.5 µM peptide, 30 ng enzyme) [1]: both enzymes efficiently cleaved the WT peptide
fluorescence from cleavage of quenched fluorogenic peptide, titration of protease [1]: the cleavage of the peptide was dose dependent
percent of peptide cleaved (intact peptide by anti-Myc ELISA, 25 and 50 ng enzyme, 5 hours) [2]: the mutated peptide was not substantially cleaved (<5%) by either MMP-2 or MMP-13
intact peptide by anti-Myc ELISA (25 and 50 ng enzyme, 5 hours) [3]: the WT peptide was cleaved in a dose dependent manner
fluorescence from cleavage of quenched fluorogenic peptide (2.5 µM peptide, 30 ng enzyme) [4]: both were completely incapable of cleaving the mutant peptide

Source: patent publication US20260209355
